Where a chain is given by its changes, count along the chain named. Names may count otherwise.
B1: 36 (protein)
chain: MADLYENPMGLMGFEFIEFASPTPGTLEPIFEIMGFTKVATHRSKNVHLYRQGEINLILNNEPNSIASYFAAEHGPSVCGMAFRVKDSQKAYNRALELGAQPIHIDTGPMELNLPAIKGIGGAPLYLIDRFGEGSSIYDIDFVYLEGVERNPVGAGLKVIDHLTHNVYRGRMVYWANFYEKLFNFREARYFDIKGEYTGLTSKAMSAPDGMIRIPLNEESSKGAGQIEEFLMQFNGEGIQHVAFLTDDLVKTWDALKKIGMRFRTAPGDEYYEMLEGRLPDHGEPVDQLQARGILLDGSSVEGDKRLLLQIFSETLMGPVFFEFIQRKGHDGFGPDSFKVLFESMERDQVRRGVLTAD
modifications: mutant HPPD polypeptide
B2: 48 (protein)
chain: B1 chain with R264M, H330D, D331H, M345V
modifications: mutant HPPD polypeptide
B3: 50 (protein)
chain: B1 chain with R264M, H330D, D331P, M345V
modifications: mutant HPPD polypeptide
B4: 45 (protein)
chain: B1 chain with R264M, T315R, H330D, M345V
modifications: mutant HPPD polypeptide
B5: 38 (protein)
chain: B1 chain with R264M, H330V, M345V
modifications: mutant HPPD polypeptide
B6: SEQ ID NO: 43: mutant HPPD polypeptide: R213K P268G T270E E335P G336D N337S A340V I345V (protein)
chain: B1 chain with R213K, R264M, H330D, M345V
modifications: mutant HPPD polypeptide
notes: mutant HPPD polypeptide: R213K P268G T270E E335P G336D N337S A340V I345V
B7: SEQ ID NO: 8: mutant HPPD polypeptide: E335P G336D N337S A340V (protein)
chain: B1 chain with R264M, G268P, E270T, H330D, M345I
modifications: mutant HPPD polypeptide
notes: mutant HPPD polypeptide: E335P G336D N337S A340V
B8: SEQ ID NO: 101: mutant HPPD polypeptide: M264L P268G T270E T315R E335P G336D N337S A340V S344Q I345M (protein)
chain: B1 chain with R264L, T315R, H330D, S344Q
modifications: mutant HPPD polypeptide
notes: mutant HPPD polypeptide: M264L P268G T270E T315R E335P G336D N337S A340V S344Q I345M
B9: SEQ ID NO: 105: mutant HPPD polypeptide: R213K M264L P268G T270E E335P G336H N337S A340R S344Q I345M (protein)
chain: B1 chain with R213K, R264L, H330D, D336H, V340R, S344Q
modifications: mutant HPPD polypeptide
notes: mutant HPPD polypeptide: R213K M264L P268G T270E E335P G336H N337S A340R S344Q I345M
B10: SEQ ID NO: 102: mutant HPPD polypeptide: M264L P268G (Table 2: R) T270E T315R E335P G336H N337S A340V S344Q I345M (protein)
chain: B1 chain with R264L, G268R, T315R, H330D, D336H, S344Q
modifications: mutant HPPD polypeptide
B11: SEQ ID NO: 22: mutant HPPD polypeptide: E335P G336H N337S A340V (protein)
chain: B1 chain with R264M, G268P, E270T, H330D, D336H, M345I
modifications: mutant HPPD polypeptide
notes: mutant HPPD polypeptide: E335P G336H N337S A340V
B12: SEQ ID NO: 56: mutant HPPD polypeptide: P268G T270E E335P G336D N337S K339R A340V I345V (protein)
chain: B1 chain with R264M, H330D, K339R, M345V
modifications: mutant HPPD polypeptide
notes: mutant HPPD polypeptide: P268G T270E E335P G336D N337S K339R A340V I345V
B13: SEQ ID NO: 24: mutant HPPD polypeptide: E335P G336H N337S A340V I345V (protein)
chain: B1 chain with R264M, G268P, E270T, H330D, D336H, M345V
modifications: mutant HPPD polypeptide
notes: mutant HPPD polypeptide: E335P G336H N337S A340V I345V
B14: SEQ ID NO: 54: mutant HPPD polypeptide: P268G T270E E335P G336D N337S K339A A340V I345V (protein)
chain: B1 chain with R264M, H330D, K339A, M345V
modifications: mutant HPPD polypeptide
notes: mutant HPPD polypeptide: P268G T270E E335P G336D N337S K339A A340V I345V

The molecules below were run on HPPD polypeptides (wild-type SEQ ID NO:1 and mutants) (assay: not given). Settings: kapp in presence of 50 μM Cmpd. 1, normalised to kapp without inhibitor; low substrate concentration.
Description: For the generation of crude HPPD polypeptide extract in micro titer plates (MTP) for the determination of residual activity in inhibition assays, cells were grown in 40 or 150 μl LB medium containing 1% Glucose (Merck, Darmstadt, Germany) and 100 μg/ml ampicillin in a standard 96 well plate (Thermo Fisher Scientific, Waltham, USA) incubated for about 18 h in a humidity incubator at 37° C.
30 μl of this starter culture were added to 600 μl LB medium containing 100 μg/ml ampicillin and 150 mM Hepes (Merck, Darmstadt, Germany) as inoculum for the expression culture in 96 well plates (2 ml deep wells; HJ Bioanalytik, Erkelenz, Germany) The plates were sealed by an aluminium foil, and cells were incubated for 5 h at 37° C. on a plate shaker at 750 rpm. The expression was induced by addition of IPTG in a final concentration of 1 mM followed by further sealed incubation for about 18 h at 30° C. on a plate shaker at 750 rpm.
Cells were harvested by centrifugation at 4° C., 2500 g for 15 min discarding the supernatant. Cell pellets were stored at −80° C. and lysed in 250 μl 1× BugBuster® (Merck, Darmstadt, Germany) in 140 mM Tris (pH 7.8), with 1:25000 diluted BNase® (Qiagen, Hilden, Germany) by incubation of the resuspended cells for 30 min at 4° C. and 1000 rpm. Lysates were clarified by centrifugation for 15 min at 4° C., 2500 g, and 150 μl supernatant were transferred in standard 96 well plate (Thermo Fisher Scientific, Waltham, USA) for subsequent testing in quadruplets.
The activity of HPPD polypeptides was determined in absence or presence of HPPD inhibitors using the coupled HPPD activity assay (FIG. 1).
For the determination of the residual activity, the apparent kinetic constant (kapp) of the determined substrate conversion was measured as kinetic changes in absorbance at 320 nm in a coupled assay, in that homogentisate (HGA) formed by HPPD from HPP is directly converted into the well absorbing molecule maleylacetoacetate (MAA) by a second enzyme homogentisate dioxygenase (HGD), applied in excess uniformly in all assays (see FIG. 1). The measurements were performed in 384 micro titer plates (Greiner Bio-One GmbH, Frickenhausen, Germany) by plate readers (Tecan infinite M1000 or M1000PRO, Tecan, Männedorf, Switzerland). The kcat/kM ratio of an enzymatic activity is proportional to the apparent kinetic constant kapp and is proportional to kcat/kM*[E] ([E]=enzyme concentration). […] As both kapp measurements in the presence and absence of inhibitor were performed by use of the identical enzyme sample, crude or purified, and thereby at the same enzyme concentration, the enzyme concentration eliminates from the calculation of residual activity and the ratio of both kapp directly indicates the change of kM due to the inhibition.
B1 showed a Residual activity of 67%. For B2, the Residual activity was 47%. B3 showed a Residual activity of 46%. Molecule B4 has a Residual activity of 39%. With B5 the Residual activity was 78%.

Same assay, conditions: total change in signal in presence of 50 μM Cmpd. 1, normalised to that without inhibitor; low substrate concentration
Work on B1 yielded a Residual turnover of 85%. With B2 the Residual turnover was 74%. With B3 the Residual turnover was 80%. In the case of B4, the Residual turnover is reported as 68%. For B5, the Residual turnover was 94%.

These molecules were tested on transgenic soybean T0 events (assay: Additional greenhouse trials of T0 soybean events, leaf damage score 0-100 as percentiles). Settings: Cmpd. 1 300 g AI/ha, five days; 75th minus 25th percentile.
Format: in vivo
Source text: In additional greenhouse trials, 21 to 94 independent T0 soybean events per construct containing an exemplary mutant HPPD polypeptide were sprayed with the HPPD inhibitor herbicide Cmpd. […] Five days after the application, the leaf damaged area due to the HPPD inhibitor herbicide is scored in a scale from 0 (no damage) to 100 (complete bleaching). Under those conditions, the wild-type plants were completely bleached and their damage scores were in the 95-100 range.
Table 9 presents the distribution of the HPPD inhibitor herbicide damage score data as percentile for exemplary mutant HPPD inhibitor herbicide tolerant polypeptides (SEQ ID NOs). The percentiles normalize ranks of the damage score from an individual plant in a population. […] The median is the 50th percentile. Half the values had higher damage scores; half had lower damage scores. […] The difference between the 75th and 25th percentile is called the interquartile range and a marker to quantify scattering in the population. All constructs had only one single cassette insertion in the soybean genome.
In Table 9, the constructs were ranked based on injury scores according to the 75th percentile, from smallest to highest score. All exemplary HPPD polypeptide variants are better in all percentile analyses than the prior art mutant HPPD polypeptide (WO2014/043435) corresponding to SEQ ID NO:2 in this invention. The scoring of the prior art mutant HPPD polypeptide (WO2014/043435) corresponding to SEQ ID NO:2 in this invention is listed in the bottom row of Table 9.
For B6, the “leaf damage score, Interquartile range” value was 10.0. B7 was tested, and the “leaf damage score, Interquartile range” value was 6.3. B8 was tested, and the “leaf damage score, Interquartile range” value was 10.0. In the case of B9, the “leaf damage score, Interquartile range” value is reported as 10.0. In the case of B10, the “leaf damage score, Interquartile range” value is reported as 12.0. B11 was tested, and the “leaf damage score, Interquartile range” value was 5.0. In the case of B12, the “leaf damage score, Interquartile range” value is reported as 10.0. B13 was tested, and the “leaf damage score, Interquartile range” value was 10.0. B14 was tested, and the “leaf damage score, Interquartile range” value was 10.0.

Same assay, conditions: Cmpd. 1 300 g AI/ha, five days; scale 0 (no damage) to 100 (complete bleaching)
In the case of B6, the “leaf damage score, 25th percentile” value is reported as 10.0. For B7, the “leaf damage score, 25th percentile” value was 10.0. With B8 the “leaf damage score, 25th percentile” value was 5.0. In the case of B9, the “leaf damage score, 25th percentile” value is reported as 5.0. With B10 the “leaf damage score, 25th percentile” value was 8.0. For B11, the “leaf damage score, 25th percentile” value was 10.0. In the case of B12, the “leaf damage score, 25th percentile” value is reported as 10.0. B13 was tested, and the “leaf damage score, 25th percentile” value was 10.0. In the case of B14, the “leaf damage score, 25th percentile” value is reported as 10.0.

Same assay, conditions: Cmpd. 1 300 g AI/ha, five days; scale 0-100
B6 was tested, and the “leaf damage score, 75th percentile” value was 20.0, the “leaf damage score, 90th percentile” value was 67.0 and the “leaf damage score, Median” value was 15.0. With B7 the “leaf damage score, 75th percentile” value was 16.3, the “leaf damage score, 90th percentile” value was 38.5 and the “leaf damage score, Median” value was 10.0. With B8 the “leaf damage score, 75th percentile” value was 15.0, the “leaf damage score, 90th percentile” value was 49.0 and the “leaf damage score, Median” value was 10.0. B9 was tested, and the “leaf damage score, 75th percentile” value was 15.0, the “leaf damage score, 90th percentile” value was 70.0 and the “leaf damage score, Median” value was 10.0. For B10, the “leaf damage score, 75th percentile” value was 20.0, the “leaf damage score, 90th percentile” value was 45.0 and the “leaf damage score, Median” value was 10.0. With B11 the “leaf damage score, 75th percentile” value was 15.0, the “leaf damage score, 90th percentile” value was 34.5 and the “leaf damage score, Median” value was 10.0. B12 was tested, and the “leaf damage score, 75th percentile” value was 20.0, the “leaf damage score, 90th percentile” value was 65.0 and the “leaf damage score, Median” value was 15.0. For B13, the “leaf damage score, 75th percentile” value was 20.0, the “leaf damage score, 90th percentile” value was 35.0 and the “leaf damage score, Median” value was 10.0. In the case of B14, the “leaf damage score, 75th percentile” value is reported as 20.0, the “leaf damage score, 90th percentile” value is reported as 62.5 and the “leaf damage score, Median” value is reported as 10.0.
